In general, Kd refers to the concentration at which binding is half-saturated. A word on the koff: it is the first-order rate constant of dissociation. The kon is the rate constant with which the complex forms.

In test [1] the target is T1, human factor H, full length (human, UniProt P08603 19-1231). As to the kind of experiment: cell-based or functional assay.
The target of test [2] is T2, recombinant human FH fragment CCP 18-20 (human, UniProt P08603 1046-1231).
T2 construct: domain: CCP 18-20; also called fragment of FH comprised of domain 18-20
T2 sequence (looked up): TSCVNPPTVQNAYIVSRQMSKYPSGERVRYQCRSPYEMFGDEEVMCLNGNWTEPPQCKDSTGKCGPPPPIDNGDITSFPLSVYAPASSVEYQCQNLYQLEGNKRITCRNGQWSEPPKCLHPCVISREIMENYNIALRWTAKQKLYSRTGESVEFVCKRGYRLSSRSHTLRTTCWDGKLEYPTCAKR
As to the kind of experiment: SPR (Biacore T200), mAb captured on ProtA or ProtG chip, FH CCP18-20 flowed over, 1:1 model. Here is the method:
(§1) Surface plasmon resonance (SPR) experiments were performed using a BiaCore T200 (GE Healthcare) and CM5 sensor chips (GE Healthcare) in accordance with the manufacturer's instructions. In short, to determine its affinity, anti-FH.07, anti-FHR-1 3B4 or anti-FHR-1 8E4 were captured onto a ProtA or ProtG coupled chip and either full length FH or a fragment of FH comprising domain 18-20 was flown over the captured moAB at decreasing concentrations.
(SPR reads the build-up and loss of mass on a sensor chip optically.)

Test [3] has as its target T1, human factor H, full length. Kind of test: SPR (Biacore T200), mAb captured on ProtA or ProtG chip, full length FH flowed over, 1:1 model. Here is the method: as §1
Test [4] has as its target T2, recombinant human FH fragment CCP 18-20. As to the kind of experiment: SPR, mAb captured, FH CCP18-20 flowed over (fuller figure of the value rounded to 0.03 × 10^-9 in Table 2). On the procedure: as §1
Test [5] deals with T3, recombinant human FH fragment CCP 19-20 (human, UniProt P08603 1107-1231).
T3 construct: domain: CCP 19-20
T3 sequence (looked up): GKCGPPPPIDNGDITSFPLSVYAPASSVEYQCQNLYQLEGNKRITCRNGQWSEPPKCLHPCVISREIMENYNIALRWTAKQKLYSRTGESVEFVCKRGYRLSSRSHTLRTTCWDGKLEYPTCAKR
As to the kind of experiment: competition ELISA: mAb captured on RM-19 coated plate, FH-bt mixed with unlabelled CCP 19-20. On the procedure: The location of the epitope of anti-FHR-1 mAbs was determined using recombinant human FH fragments composed of multiple CCP domains (15-18, 15-19, 18-20 or 19-20). In short, anti-FHR-1 mAbs were captured on a RM-19 coated microtiterplate to assure optimal binding conformation. Next, biotinylated FH, mixed with a 100-fold higher concentration of the indicated unlabeled recombinant FH-fragments, was incubated on the plate for 1 hour. Binding of biotinylated FH was determined by incubation with 0.01% (v/v) streptavidin conjugated with poly-HRP, in HPE for 30 min. The ELISA was further developed as described above. To determine whether the anti-FHR-1 mAbs competed with anti-FH.07 for the binding of FH, a similar set-up was used. In short, mAbs were directly coated to the plate and binding of biotinylated FH (FH-bt) in the absence or presence of a 10-fold higher concentration of indicated mAbs was assessed by ELISA as described above.
(ELISA stands for enzyme-linked immunosorbent assay.)

Test [6] has as its target T4, C3b (UniProt P01024 23-667; P01024 749-1663, limits assumed).
T4 construct: C3b has two chains (beta and alpha') derived from C3; also called purified C3b (Complement Technologies)
As to the kind of experiment: SPR on immobilised C3b, FH with Fab′ against FH alone. Here is the method: (§2) Binding of FH to C3b in the presence of the anti-FH moAbs was determined by surface plasmon resonance using a Biacore T200 instrument (GE Healthcare, Little Chalfont, UK). Purified C3b (Complement Technologies) was immobilized onto a flow cell of a CM5 Biacore Sensor Chip (GE Healthcare) using standard amine coupling. The remaining flow cell was used as reference surface and prepared by performing a coupling reaction without the addition of any protein. A response of 2000 response units (RUs) was obtained after coupling with C3b. SPR experiments were performed at 37° C. using a flow rate of 10 μl/min and in phosphate buffered saline pH 7.4 (PBS, Orphi Farma) supplemented with 0.01% (w/v) Tween-20 (Merck) (PBS-T).
(§3) To determine the effect of the antibodies without interference of possible cross-linking via the moAb, recombinantly produced Fab′ fragments of the moAbs were used. Fab′ fragments were mixed with plasma purified FH (pdFH). […] Each Fab′ fragment was also injected without addition of FH to determine any interactions of the Fab′ fragments with the surfaces. The pdFH injection was followed by a dissociation of 60 seconds and surface was regenerated between each cycle by a single injection of 1 M NaCl (Merck).

Test [7] deals with T4, C3b. As to the kind of experiment: SPR on immobilised C3b, equilibrium analysis, FH with Fab′ against FH alone. On the procedure:
as §2, §3

Test [8] has as its target T4, C3b. Kind of test: SPR, C3b amine-coupled to CM5 chip, FH (5-0.01953 µM) injected with 10 µM anti-FHR-1 8E4 Fab′, equilibrium analysis; FH with anti-FHR-1 8E4 Fab′. Here is the method: as §2, §3
For test [9], the target named is T4, C3b. Kind of test: SPR, C3b amine-coupled to CM5 chip, FH (5-0.01953 µM) injected with 10 µM anti-FH.07 Fab′, equilibrium analysis; FH with anti-FH.07 Fab′. Here is the method: as §2, §3
(§4) Data was analyzed using Scrubber 2 (Biologic Software) affinities were determined by equilibrium analysis.

For test [10], the target named is T4, C3b. Kind of test: SPR, C3b amine-coupled to CM5 chip, FH (5-0.01953 µM) injected with 10 µM anti-FHR-1 3B4 Fab′, equilibrium analysis; FH with anti-FHR-1 3B4 Fab′. On the procedure: as §2, §3, §4

Where only a bound is given, the exact number is not on record here.

T4 sequence (P01024 23-667 limits assumed, chain 1 of 2): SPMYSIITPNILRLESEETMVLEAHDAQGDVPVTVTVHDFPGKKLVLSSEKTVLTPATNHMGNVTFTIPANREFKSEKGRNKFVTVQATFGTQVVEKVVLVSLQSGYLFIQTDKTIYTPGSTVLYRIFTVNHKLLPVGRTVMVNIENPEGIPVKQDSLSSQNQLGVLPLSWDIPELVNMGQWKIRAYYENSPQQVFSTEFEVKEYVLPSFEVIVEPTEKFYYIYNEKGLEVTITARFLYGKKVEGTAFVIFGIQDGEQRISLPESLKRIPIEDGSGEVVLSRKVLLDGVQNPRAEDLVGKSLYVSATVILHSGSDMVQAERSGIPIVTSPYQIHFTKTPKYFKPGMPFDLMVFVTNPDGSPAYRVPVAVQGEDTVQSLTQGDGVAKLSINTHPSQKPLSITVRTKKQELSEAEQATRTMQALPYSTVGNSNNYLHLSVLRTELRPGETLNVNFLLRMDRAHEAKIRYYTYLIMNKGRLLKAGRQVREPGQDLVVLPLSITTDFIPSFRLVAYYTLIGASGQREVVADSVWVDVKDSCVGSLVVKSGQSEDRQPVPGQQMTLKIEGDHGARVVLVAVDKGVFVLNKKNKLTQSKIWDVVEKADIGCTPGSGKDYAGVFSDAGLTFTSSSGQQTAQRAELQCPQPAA
T4 sequence (P01024 749-1663 limits assumed, chain 2 of 2): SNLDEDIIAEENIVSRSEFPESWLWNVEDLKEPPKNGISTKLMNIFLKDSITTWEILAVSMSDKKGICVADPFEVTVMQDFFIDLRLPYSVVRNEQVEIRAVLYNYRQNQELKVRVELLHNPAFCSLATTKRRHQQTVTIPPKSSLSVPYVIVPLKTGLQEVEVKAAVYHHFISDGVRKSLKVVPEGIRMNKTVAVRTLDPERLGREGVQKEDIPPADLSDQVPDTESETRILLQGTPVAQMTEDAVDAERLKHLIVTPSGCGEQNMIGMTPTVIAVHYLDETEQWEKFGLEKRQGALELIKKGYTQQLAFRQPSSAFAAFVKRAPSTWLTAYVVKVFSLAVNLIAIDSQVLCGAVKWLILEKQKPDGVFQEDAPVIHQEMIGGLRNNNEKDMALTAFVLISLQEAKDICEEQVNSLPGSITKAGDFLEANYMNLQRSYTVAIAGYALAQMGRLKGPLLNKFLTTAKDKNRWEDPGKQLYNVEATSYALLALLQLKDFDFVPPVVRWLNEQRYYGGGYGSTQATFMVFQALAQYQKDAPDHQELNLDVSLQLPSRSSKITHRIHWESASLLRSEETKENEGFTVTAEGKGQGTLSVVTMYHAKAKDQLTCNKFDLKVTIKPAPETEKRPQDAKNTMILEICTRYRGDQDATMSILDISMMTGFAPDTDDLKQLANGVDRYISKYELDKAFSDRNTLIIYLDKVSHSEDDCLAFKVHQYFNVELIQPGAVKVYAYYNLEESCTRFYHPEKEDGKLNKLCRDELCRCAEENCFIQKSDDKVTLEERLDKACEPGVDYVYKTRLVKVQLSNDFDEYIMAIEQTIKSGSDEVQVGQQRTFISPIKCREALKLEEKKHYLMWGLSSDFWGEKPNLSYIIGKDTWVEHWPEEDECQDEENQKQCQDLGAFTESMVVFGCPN

B1: anti-FHR-1.8E4 (antibody, V domains shown)
VH: QVQLKQSGPGLVQPSQSLSITCTVSDFSLTNSGVHWVRQSPGKGLEWLGVIWSGGTTEYNAAFMSRLTITKDNSKSQVFFKMNSLLVDDTGIYYCARNFGNYAVDYWGQGTSVTVSS
VL: QIVLSQSPAILSASPGEKVTMTCRASSSVRYMHWYQQKAGSSPTAWIFATSNLASGVPPRFSGSGSGTSYSLTISRVEAEDAATYYCQQWGTKPPTFGAGTKLELK
notes: Mouse monoclonal from a hybridoma, raised against recombinant human FHR-1; also called aFHR-1 8E4
On to B1, for which, in test [1], the “IC50 (nM), Hemolytic assay” value worked out at 128 nM and the “IC50 (nM), LPS C3b dep. assay” value came out at 26.3 nM. Besides, in [2], the Kd was found to be 0.03 nM, the koff was 4.96e-05 s⁻¹ and the on-rate (kon) was 1.58e+06 M⁻¹ s⁻¹. Besides, in test [3], binding was put at a Kd of 10.4 nM, the koff is 9.39e-05 s⁻¹ and the kon amounted to 9000 M⁻¹ s⁻¹. In addition, in test [4], the Kd was determined as 0.0313 nM. The binding result in test [5] is recorded as “no binding”.

B2: FH complexed with anti-FHR-1 8E4 Fab′ fragment (other, human)
chain: EDCNELPPRRNTEILTGSWSDQTYPEGTQAIYKCRPGYRSLGNVIMVCRKGEWVALNPLRKCQKRPCGHPGDTPFGTFTLTGGNVFEYGVKAVYTCNEGYQLLGEINYRECDTDGWTNDIPICEVVKCLPVTAPENGKIVSSAMEPDREYHFGQAVRFVCNSGYKIEGDEEMHCSDDGFWSKEKPKCVEISCKSPDVINGSPISQKIIYKENERFQYKCNMGYEYSERGDAVCTESGWRPLPSCEEKSCDNPYIPNGDYSPLRIKHRTGDEITYQCRNGFYPATRGNTAKCTSTGWIPAPRCTLKPCDYPDIKHGGLYHENMRRPYFPVAVGKYYSYYCDEHFETPSGSYWDHIHCTQDGWSPAVPCLRKCYFPYLENGYNQNYGRKFVQGKSIDVACHPGYALPKAQTTVTCMENGWSPTPRCIRVKTCSKSSIDIENGFISESQYTYALKEKAKYQCKLGYVTADGETSGSITCGKDGWSAQPTCIKSCDIPVFMNARTKNDFTWFKLNDTLDYECHDGYESNTGSTTGSIVCGYNGWSDLPICYERECELPKIDVHLVPDRKKDQYKVGEVLKFSCKPGFTIVGPNSVQCYHFGLSPDLPICKEQVQSCGPPPELLNGNVKEKTKEEYGHSEVVEYYCNPRFLMKGPNKIQCVDGEWTTLPVCIVEESTCGDIPELEHGWAQLSSPPYYYGDSVEFNCSESFTMIGHRSITCIHGVWTQLPQCVAIDKLKKCKSSNLIILEEHLKNKKEFDHNSNIRYRCRGKEGWIHTVCINGRWDPEVNCSMAQIQLCPPPPQIPNSHNMTTTLNYRDGEKVSVLCQENYLIQEGEEITCKDGRWQSIPLCVEKIPCSQPPQIEHGTINSSRSSQESYAHGTKLSYTCEGGFRISEENETTCYMGKWSSPPQCEGLPCKSPPEISHGVVAHMSDSYQYGEEVTYKCFEGFGIDGPAIAKCLGEKWSHPPSCIKTDCLSLPSFENAIPMGEKKDVYKAGEQVTYTCATYYKMDGASNVTCINSRWTGRPTCRDTSCVNPPTVQNAYIVSRQMSKYPSGERVRYQCRSPYEMFGDEEVMCLNGNWTEPPQCKDSTGKCGPPPPIDNGDITSFPLSVYAPASSVEYQCQNLYQLEGNKRITCRNGQWSEPPKCLHPCVISREIMENYNIALRWTAKQKLYSRTGESVEFVCKRGYRLSSRSHTLRTTCWDGKLEYPTCAKR
VH: B1 VH
VL: B1 VL
notes: mature; also called FH in presence of 10 µM anti-FHR-1 8E4 Fab′
On to B2, for which, in the test with C3b [6], the “fold increase of measured RU against FH alone” value (shortened to “fold increase of measured RU”) is no less than 2 fold. Besides, the “increase in affinity of FH for C3b against FH alone (times)” value (“increase in affinity of FH for C3b” below) with C3b [7] turned out to be 3.6 times. In addition, the Kd with C3b [8] amounted to 1660 nM.

B3: FH complexed with anti-FH.07 Fab′ fragment (other, human)
chain: B2 chain
VH: QVQLQQSGPGLVQPSQSLSITCTVSDFSLARYGVHWIRQSPGKGLEWLGVIWSGGTADYNAAFISRLNINKDNSKSQVFFKMNSLQANDTAIYYCARNFGNYAVDYWGQGTS
VL: QIVLSQSPTFLSASPGEKVTVTCRASSSVKYMHWYQQKPGASPKPWIFATSNLASGVPARFSGSGSGTSYSLTISRVEAEDAATYYCQQWSIIPPTFGNGTKLELK
notes: mature; also called FH in presence of 10 µM anti-FH.07 Fab′
For the molecule B3, the “fold increase of measured RU” value with C3b [6] is no less than 2 fold. Further, in the test with C3b [7], the “increase in affinity of FH for C3b” value was 2.7 times. Further, the dissociation constant (Kd) with C3b [9] came to 2200 nM.

B4: FH complexed with anti-FHR-1 3B4 Fab′ fragment (other, human)
chain: B2 chain
VH: QVQLRQSGPGLVQPSQSLSITCTVSGFSLTNYGVYWVRQSPGKGLEWLGVIWSGGTTDYSAAFISRLSISKDNSKSQVFFKMNSLQADDTAIYYCARNFGNYAMDYWGQGTSVTVSS
VL: QIVLSQSPTILSASPGEKVTMTCRASSSVTYMHWYQQKPGSSPKPWIYATSNLASGVPARFSGSGSGTSYSLTISRVEAEDAATYYCQQRSSSNPLTFGAGTKLELK
notes: mature; also called FH in presence of 10 µM anti-FHR-1 3B4 Fab′
For the molecule B4, the “fold increase of measured RU” value in the test with C3b [6] was no less than 2 fold. In addition, the “increase in affinity of FH for C3b” value with C3b [7] was 3.2 times. Moreover, in the test with C3b [10], binding was put at a Kd of 1900 nM.

For the origin of these results see patent US20220356235A1 (STICHTING SANQUIN BLOEDVOORZIENING, published 2022).
